The results in this text go back to a protein production outcome set (Wang et al. 2014).

A short description of the data set: label from the status in PepcDB records.
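Further: failed if final PepcDB status was selected cloned or expressed and not failed if soluble or beyond.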

“MKDVLAEYASRIVSAEEAVKHIKNGERVALSHAAGVPQSCVDALVQQADLFQNVEIYHMLCLGEGKYMAPEMAPHFRHITNFVGGNSRKAVEENRADFIPVFFYEVPSMIRKDILHIDVAIVQLSMPDENGYCSFGVSCDYSKPAAESAHLVIGEINRQMPYVHGDNLIHISKLDYIVMADYPIYSLAKPKIGEVEEAIGRNCAELIEDGATLQLGIGAIPDAALLFLKDKKDLGIHTEMFSDGVVELVRSGVITGKKKTLHPGKMVATFLMGSEDVYHFIDKNPDVELYPVDYVNDPRVIAQNDNMVSINSCIEIDLMGQVVSECIGSKQFSGTGGQVDYVRGAAWSKNGKSIMAIPSTAKNGTASRIVPIIAEGAAVTTLRNEVDYVVTEYGIAQLKGKSLRQRAEALIAIAHPDFREELTKHLRKRFG”: the protein production entry is listed as “not failed”.

For the sequence “MKEDIVSGTVKRVERHGIIVEVVAGKLDALIPRDQMIPRENFRSGDRIRALFLRVEEIGNTGRKQVILSRTSGLEHHHHHH”, the protein production entry is recorded as “not failed”.

For “MKEDKKLVKQARQNFRSNLKSARMHYRKEVRTLKQTVPKKGRFRKSAKNSLFQEKKTELKGNLLSSQKEAEEKFIKEITYVSPRLLKAKEIKNYRLPQAQERLRTARKHLSEVKLSEKQQVVNPKFTFQKENPSLKSRFQFHQEKSFDRLSAEKDVSSAKREVKQLKKVQKTKKNSTKVKAGLGLAASESLDLIAQEDDLDGLRTMKDTSLKARRYGRFTYQAGKVAVKSGQTGVRFTKTKFSHGKERFQNFKKGKGFTRQKPLKPRRRYQTFLNHVRKQSVAGFKGIVQAIKGSMTFFSVLAGNPLTWIVSGILLILLLMMSFFMSVSGSSVIQQDEIELSKSYTHMTWEDAEHTRTNDKGITFYTKIDEVMVYMNHQYQDYKLDDFIETSGTTYKEFLSQLWSDLNGGDSIKSMSDLYKEPAYKLSDEDQEELNELTEEGNYLALQELDNPFQGQTDEDSLSMTYRYGYEVIDEKPTLHHHIILEAKEGQVIVAPMDGKVSLDGENVVLTSGKGVNKTKLTLFGIHSGRVSENQQVLAGDIIGQTKDGTGLKVTYQKVDDDTDKLVYVNPAFYFPKVIQVQTTILPTIGQFGGDEFERAKAIYDYLKSKGATNQAIAAILGNWSVESSINPKRAEGDYLSPPVGATDSSWDDEGWLTLNGPTIYNGRYPNILKRGLGLGQWTDTADGSRRHTLLLEYAKGKHQKWYDLGLQLDFMLYGDSPYYTNWLKDFFKNSGSPASLAQLFLIYWEGNSGDKLLERQTRASEWYYQIEKGFSQPNGGTAQSDPKALEAVREDLFENSIPGGGDGMGYAYGQCTWGVAARINQLGLKLKGKNGEKIPIISTMGNGQDWVRTAASLGGETGTSPQEGAILSFAGGGHGTPTEYGHVAFVEKVYPDGSFLISETNYNGNPNYTFRKLSGVDSSLSFAYTTK”, the protein production entry is recorded as “failed”.

As to “MKEFVHDYLAASVENEEEGGRMRWYPWHSAEYRFNHILNVVDIATKIARKEGANVDVTRVAALFHDIAKLEAEQDLHAEAGARIAREYLRAHGDYPESFIEQVCSAVEVHSYQGSLDDLPLEVQCLIEADILDKVGANGTALMLLRMGYESRTHMDAAEMVDRVIERGEDARERVQSDTAESLVHQRLKRTRWFQEWLTMEVAEMAVEDDLDDVATGMGDSLEHHHHHH”, the protein production entry is “not failed”.

With “MKEIVERVKTKTKIPVYERSVENVLSAVLASDDIWRIVDLSEEPLPLVVAILESLNELGYVTFEDGVKLTEKGEELVAEYGIGKRYDFTCPHCQGKTVDLQAFADLLEQFREIVKDRPEPLHEFDQAYVTPETTVARVILMHTRGDLENKDIFVLGDDDLTSIALMLSGLPKRIAVLDIDERLTKFIEKAANEIGYEDIEIFTFDLRKPLPDYALHKFDTFITDPPETLEAIRAFVGRGIATLKGPRCAGYFGITRRESSLDKWREIQKLLLNEFNVVITDIIRNFNEYVNWGYAEETRAWKLIPIKKLPEYNWYKSYMFRIETLEGSRGYEDEIPEEDIYNDEESSTT”, the protein production entry is recorded as “not failed”.

Consider “MKEKVVLAYSGGLDTSVILKWLCEKGFDVIAYVANVGQKDDFVAIKEKALKTGASKVYVEDLRREFVTDYIFTALLGNAMYEGRYLLGTAIARPLIAKRQVEIAEKEGAQYVAHGATGKGNDQVRFELTYAALNPNLKVISPWKDPEFLAKFKGRTDLINYAMEKGIPIKVSKKRPYSEDENLMHISHEAGKLEDPAHIPDEDVFTWTVSPKDAPDEETLLEIHFENGIPVKVVNLKDGTEKTDPLELFEYLNEVGAKNGVGRLDMVENRFIGIKSRGVYETPGATILWIAHRDLEGITMDKEVMHLRDMLAPKFAELIYNGFWFSPEMEFLLAAFRKAQENVTGKVTVSIYKGNVMPVARYSPYSLYNPELSSMDVEGGFDATDSKGFINIHALRLKVHQLVKKGYQR”, for which the protein production entry is reported as “not failed”.

As to “MKENDGAPLKEGETASKYSVIINMILVVIKGFTGYLSGNIALIADAIHSFADVFSSAAVFIGLKLSQRKPDELFPYGYHRIETLVSLLVSVLIIITGLEITWDSIIYILNPASEVSMATASLAVSLISIGVSYAIAFYKVRVGRRIGSTALLNDGKHSYVDVISSILVFLGILGEYMGLHGFQGIAGVIISVVIIYIGIRLAKYDVLTLLDACIDRDSIEVIKKTVLSVPGVEGVHDIRIRRSGPYLFGELHIELERGLPVDKIEGIISQINSRVKEVLPSIDHLTVQPETVKREEVVVAVPLADNHGMESRISTHFGRADSFLIARTRRGEILDYRIIENSGKSLRTKRGIRAAELLKDENIDVLVIEKLSEGPELLFSDYLLGKVPPEGSSLEEVIKNASMKFSE”, the protein production result was “failed”.

For “MKENKLDYIPEPMDLSLVDLPESLIQLSERIAENVHEVWAKARIDEGWTYGEKRDDIHKKHPCLVPYDELPEEEKEYDRNTAMNTIKMVKKLGFRIEKED”, the protein production entry was “not failed”.

On to “MKEVSAAPKITNVKAAILGFQHLLAMYSGDVLVPLLIGAALHFSQEQLTYLVSIDIFMCGIATFLQLKRTPLTGIGLPVVLGCAVQAVNPLIQIGKTYGLGTMYGSIIGAGIFIFLIAGLFSKIKNLFPPVVTGSLITIIGFTLIPVAFQNLGGGDTSAKDFGNLQALGIGFLTIAIILLISVFARGFMKSVSILIGILVGTLIAGAMGMVSLKPVAEASWFHLPTLFYFGTPHFEWSSILTMILVSLTTMVESTGVFFALGDITGRKIEGDDLKRGYRAEGIAVILGGLFSTFPYSTFSENVGVVQLSGVKTRKPIYFSAAFLVVLGLLPKIGALATIIPDPVLGGAMVVMFGIVGIQGIRMLAQVDFRNNNNLLVAAVSIGLGLGVTVQTNIFQFLPGALQIMLSNGVVVGSVAAVGLNLLFNRHAAENTVDDESVGLNETEQP”, for which the protein production result is “failed”.

Regarding “MKFIIEALKRVRERRPLVHNITNFVVMNTTANALLALGASPVMAHAEEELEEMIRLADAVVINIGTLDSGWRRSMVKATEIANELGKPIVLDPVGAGATKFRTRVSLEILSRGVDVLKGNFGEISALLGEEGKTRGVDSLEYGEEEAKKLTMNAAREFNTTVAVTGAVDYVSDGRRTFAVYNGHELLGRVTGTGCMVAALTGAFVAVTEPLKATTSALVTFGIAAEKAYEEAKYPGSFHVKLYDWLYRINENVIRTYAKVREVEL”, the protein production entry was “not failed”.

For the sequence “MKFKIHSDITYQVMSPTTFIFNVHALRTESQHILDESLIVTPPIEIEEFSYNSGTSRFVRLKATENTTFSMSYTATVDTQYKVIDQRQELETVPVVDLDGDIIPFLFPSRYCQSDKLQKLAYKEFGKIENVYSKVLAITDWIYNNVEYISGSTNSQTSAFDTITERAGVCRDFAHLGIALCRALSIPARYFTGYAFKLNPPDFHACFEAYIGGNWIIFDATRLVPLNGLVKIATGRDAADAAVASIFGNASSTNMHVECASLDTDFTPFWYDKNSLKGLSFQ”, the protein production entry is “not failed”.

Regarding “MKFLPYIFLLCCGLWSTISFADEDYIEYRGISSNNRVTLDPLRLSNKELRWLASKKNLVIAVHKSQTATLLHTDSQQRVRGINADYLNLLKRALNIKLTLREYADHQKAMDALAEGEVDIVLSHLVTSPPLNNDIAATKPLIITFPALVTTFHDSMRPLTSPKPVNIARVANYPPDEVIHQSFPKATIISFTNLYQALASVSAGHNDYFIGSNIITSSMISRYFTHSLNVVKYYNSPRQYNPLLTRKESVILNEVLNRFVDALTNEVRYEVSQNRLDTGNLAFLNKPLELTEHEKQWIKQHPNLKVLENPYSPPYSMTDENGSVRGVMGDILNIITLQTGLNFSPITVSHNIHAGTQLSPGGWDIIPGAIYSEDRENNVLFAEAFITTPYVFVMQKAPDSEQTLKKGMKVAIPYYYELHFELKEMYPEVEWIQVDNASAAFHKVKEGELDALVATQLNSRYMIDHYYPNELYHFLIPGVPNASLSFAFPRGEPELKDIINKALNAIPPSEVLRLTEKWIKMPNVTIDTWDLYSEQFYIVTTLSVLLVGSSLLWGFYLLRSVRRRKVIQGDLENQISFRKALSDSLPNPTYVVNWQGNVISHNSAFEHYFTADYYKNAMLPLENSDSPFKDVFSNAHEVTAETKENRTIYTQVFEIDNGIEKRCINHWHTLCNLPASDNAVYICGWQDITETRDLINALEVEKNKAIKATVAKSQFLATMSHEIRTPISSIMGFLELLSDSGLSKEQRVEAISLAYATKQSVLGLIGEILDVDKIESGNYQLQPQWVDIPTLVQNTCHSFGAIAASKSIALSCSSTFPEHYLVKIDPQAFKQVLSNLLSNALKFTTEGAVKITTSLGHIDDNHAVIKMTIMDSGSGLLQEEQQQLFKRYSQTSAGRQQTGSGLGLMICKELIKNMQGDLSLESHPGIGTTFTITIPVEISQQVATVEAKAEQPITLPEKLSILIADDHPTNRLLLKRQLNLLGYDVDEATDGVQALHKVSMQHYDLLITDVNMPNMDGFELTRKLREQNSSLPIWGLTANAQANEHEKGLSCGMNLCLFKPLTLDVLKTHLSQLYQVAHIAPQYRHLDIEALKNNTANDLQLMQEILMTFQHETHKDLPAAFQALEAGDNRTFHQCIHRIHGAANILNLQKLINISHQLEITPVSDDSKPEILQLLNSVKEHIAELDQEIAVFCQKND”, the protein production result was “failed”.

In the case of “MKFLTVSDDMNFLRQVNTLVAGKGDMDSVIIGEGDAKGLGSKVLYRAKKGTPFDAVSEGILKIAGNYDYIAIGSTEVGREIAGYLSFKTGFYTATEIFSLEFNGQKAHTKRFFYGGKTVIEEESDARILTVAPGVIEAKDLGTTPEIRDLEIGQSRIKITKFVSKAGGSVRLEDAKVIVSVGRGIGSKENIAKIEPLAKALNGEIAGSRPVCMDYGWLSEDRQVGLSGKKVSPKVYIALGISGQIQHIAGMRNSKTVIAINKDKNAPIFQECDYGIVGDLFTVVPKILEQLKQ”, the protein production entry is reported as “failed”.

In the case of “MKFVKASLYLSIALAISACGEQVSVESHLENAKSYLNENKVNESIIELKNAIRADTKNAEARFLLGQIYLSLGDGLAAVKELERAQSLKYPDNKVLPLLARAYILTDSDSDVIALSTAAKGLAAEERSQYLAYQTLAALRSEQPDLAKQSVELAQSIAQQSLYSMLASAYLQLSENKYDEVKTLISRILTIEAKQVDALMLQGQVAMVTEEYQLAVDSFKQYMELQPRFSMVELLLANALLKAGHDEEAEQHADAILAKVNNQPFANYIKAMVRFQAKDFDKASEHAEAALSADFNQFNLKLVAGASAFYLKNWQQSYHHLSAIVKYLPNDHQARRMLAVTQLELGLIDEISATIGDFDGNDEVNSQFLSSLSYKLLELGATTEAKKLLAQNGQNSSKNAAHNARQGILKLMMNDPSGIENLQDAVKLNPELIEAELAIAFSALQRGDIAKANAIAEKWQKQYPDKASSFNLLASIAIKEGKYDKAEQALKKSLSLEQDNFFALTEQLRIARKQENIPLSKQRADYLITIAPTNNKVLRQYFGVYRNEMALAKLTAAYELDKTDINKAILLSEAMVSLGQLKQAESILVSIADTAKLPKRYWQLLLLTYKKQKNFEKIRPTLEKWLKENPYHIEAVVLLTDFYASQRNYERALTVIKRGLDNHKDNLVLQLVQMQLLLNNKQISPAKSLYKIIENKNINDALKQGLLGRIYLLEEDYVQALPKLTVFYQTYPSSQNAIYLAGAHLGNKDNAKAVKVLEHYLTIDANNNRIETMLAGIYLENDSDKAIAVYDDVVKKQPKNVVAHNNLAWLYLEQDNISKALEHAEKALELAPQIANIVDTYAKVLLGSGDKRAALQYASKASEIAKGKDVDIQLNYVEALIANNRINEAKDLLAKVATATDEQKNKKSKLLAQL”, the protein production entry is recorded as “failed”.
